Experimental data reported in article PMC4659945, “X-ray structure and activities of an essential Mononegavirales L-protein domain” (Nature Communications, 2015).

Biological target: the molecule itself
Assay: crystal structure; CR-VI+ crystals, space group P2_(1)2_(1)2_(1), two molecules in the asymmetric unit; vapour diffusion at 20.5 °C, PGA-HT screen C11 (pH 6.5) with 0.1 M guanidine hydrochloride

B1: CR-VI+ domain of human metapneumovirus (hMPV) L protein (domain or fragment)
chain: NALLTPIPSPMVNLTQVIDPTEQLAYFPKITFERLKNYDTSSNYAKGKLTRNYMILLPWQHVNRYNFVFSSTGCKVSLKTCIGKLMKDLNPKVLYFIGEGAGNWMARTACEYPDIKFVYRSLKDDLDHHYPLEYQRVIGELSRIIDSGEGLSMETTDATQKTHWDLIHRVSKDALLITLCDAEFKDRDDFFKMVILWRKHVLSCRICTTYGTDLYLFAKYHAKDCNVKLPFFVRSVATFIMQGSKLSGSECYILLTLGHHNNLPCHGEIQNSKMKIAVCNDFYAAKKLDNKSIEANCKSLLSGLRIPINKKELNRQRRLLTLQSNHSSVATVGGSKVIESKWLTNKANTIIDWLEHILNSPKGELNYDFFEALENTYPNMIKLIDNLGNAEIKKLIKVTGYMLVSKK
modifications: disulphide between C1877 of the two copies
notes: L protein (large RNA polymerase) of human metapneumovirus isolate 00-1, GenBank AF371337.2, residues 1599-2005 (CR-VI ~1616-1883 and +domain 1884-2005); synthetic gene, codon optimised for Sf cells; The text calls it a 406-residue fragment, but 1599-2005 counts 407 residues; A selenomethionine form was used for phasing; The construct was also expressed in HEK293T and BL21 Star; crystals came from …
stoichiometry N: 2
